Source: patent US20180326084A1 (Genmab, published 2018)

What was measured:
[1] = biological target: T1, human AXL (full length) (human, UniProt P30530 26-894); test: FMAT screening assay, HEK-293F cells transiently expressing human AXL
T1 construct: also called TH1021-AXL; TH1021-hAXL

[2] = biological target: T2, human AXL with a cynomolgus monkey extracellular domain (ECD) (cynomolgus monkey (Macaca …, UniProt P30530 26-894)); test: flow cytometry, HEK293T cells with human AXL carrying cynomolgus ECD
T2 construct: Chimera on transfected HEK293T cells; also called cynomolgus AXL; cynomolgus AXL-ECD
T2 chain: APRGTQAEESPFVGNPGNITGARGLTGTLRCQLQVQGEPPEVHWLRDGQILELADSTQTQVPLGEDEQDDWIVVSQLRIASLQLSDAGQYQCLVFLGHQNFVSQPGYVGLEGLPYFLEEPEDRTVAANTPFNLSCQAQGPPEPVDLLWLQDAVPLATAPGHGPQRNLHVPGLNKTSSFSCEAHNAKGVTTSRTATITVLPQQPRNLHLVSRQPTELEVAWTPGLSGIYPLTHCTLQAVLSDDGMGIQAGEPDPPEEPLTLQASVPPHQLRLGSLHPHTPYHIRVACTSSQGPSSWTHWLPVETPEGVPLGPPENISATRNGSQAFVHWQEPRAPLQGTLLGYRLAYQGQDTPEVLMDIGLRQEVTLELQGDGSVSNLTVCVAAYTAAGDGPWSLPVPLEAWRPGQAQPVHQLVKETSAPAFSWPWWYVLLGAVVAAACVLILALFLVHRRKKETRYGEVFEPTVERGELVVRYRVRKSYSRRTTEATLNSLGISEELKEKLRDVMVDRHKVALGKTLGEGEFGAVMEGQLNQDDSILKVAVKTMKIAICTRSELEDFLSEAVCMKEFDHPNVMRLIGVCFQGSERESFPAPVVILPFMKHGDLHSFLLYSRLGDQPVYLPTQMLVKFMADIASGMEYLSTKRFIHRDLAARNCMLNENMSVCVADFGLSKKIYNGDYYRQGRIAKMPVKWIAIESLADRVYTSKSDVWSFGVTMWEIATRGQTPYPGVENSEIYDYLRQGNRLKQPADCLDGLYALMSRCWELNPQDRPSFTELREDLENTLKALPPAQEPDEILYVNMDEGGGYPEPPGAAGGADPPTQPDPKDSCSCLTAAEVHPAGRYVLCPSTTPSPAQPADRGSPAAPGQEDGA

[3] = biological target: T3, AXLECDHis (human, UniProt P30530 26-447); test: BLI (Octet), IgG on anti-human Fc sensor, AXLECDHis analyte
T3 construct: theoretical mass 46 kDa used; also called extracellular domain (ECD) of human AXL (aa 1-447) with a C-terminal His tag; soluble recombinant AXL extracellular domain

[4] = biological target: T1, human AXL (full length); test: flow cytometry, HEK293T cells with full-length human AXL
[5] = biological target: T4, Homo sapiens AXL-Mus musculus Ig2 domain (p33-AXL-mIg2) (human-mouse chimera, UniProt P30530 26-894); test: flow cytometry, 1 µg/mL antibody, transfected HEK293F cells
T4 construct: Expressed in HEK293F cells; also called hsAXL-mmIg2; TH1021-mIg2
T4 chain: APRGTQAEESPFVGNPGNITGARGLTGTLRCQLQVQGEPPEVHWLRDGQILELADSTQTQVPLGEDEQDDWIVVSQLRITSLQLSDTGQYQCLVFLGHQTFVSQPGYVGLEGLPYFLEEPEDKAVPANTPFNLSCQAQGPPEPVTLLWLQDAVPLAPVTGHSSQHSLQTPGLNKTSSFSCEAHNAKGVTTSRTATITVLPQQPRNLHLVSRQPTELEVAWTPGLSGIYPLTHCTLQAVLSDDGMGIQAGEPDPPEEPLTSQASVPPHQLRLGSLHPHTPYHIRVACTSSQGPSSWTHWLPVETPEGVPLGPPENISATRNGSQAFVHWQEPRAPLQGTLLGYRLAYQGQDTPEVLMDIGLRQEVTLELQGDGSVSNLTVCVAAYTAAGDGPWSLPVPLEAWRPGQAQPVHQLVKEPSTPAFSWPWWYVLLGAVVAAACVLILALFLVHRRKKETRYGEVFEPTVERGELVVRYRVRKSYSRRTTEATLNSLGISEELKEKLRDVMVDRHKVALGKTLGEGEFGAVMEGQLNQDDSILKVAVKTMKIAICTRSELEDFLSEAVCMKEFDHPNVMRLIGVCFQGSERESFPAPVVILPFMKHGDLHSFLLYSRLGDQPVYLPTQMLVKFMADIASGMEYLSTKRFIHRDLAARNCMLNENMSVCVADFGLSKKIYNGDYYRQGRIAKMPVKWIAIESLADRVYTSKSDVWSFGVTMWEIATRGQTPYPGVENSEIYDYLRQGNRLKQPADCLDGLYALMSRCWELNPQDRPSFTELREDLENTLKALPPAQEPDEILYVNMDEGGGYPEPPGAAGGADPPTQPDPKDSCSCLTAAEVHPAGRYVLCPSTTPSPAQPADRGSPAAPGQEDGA

[6] = biological target: T5, Homo sapiens AXL-Mus musculus Ig1 domain (p33-AXL-mIg1) (human-mouse chimera, UniProt P30530 8-894); test: as above
T5 construct: Expressed in HEK293F cells; also called hsAXL-mmIg1; hsAXL-mmIgl
T5 chain: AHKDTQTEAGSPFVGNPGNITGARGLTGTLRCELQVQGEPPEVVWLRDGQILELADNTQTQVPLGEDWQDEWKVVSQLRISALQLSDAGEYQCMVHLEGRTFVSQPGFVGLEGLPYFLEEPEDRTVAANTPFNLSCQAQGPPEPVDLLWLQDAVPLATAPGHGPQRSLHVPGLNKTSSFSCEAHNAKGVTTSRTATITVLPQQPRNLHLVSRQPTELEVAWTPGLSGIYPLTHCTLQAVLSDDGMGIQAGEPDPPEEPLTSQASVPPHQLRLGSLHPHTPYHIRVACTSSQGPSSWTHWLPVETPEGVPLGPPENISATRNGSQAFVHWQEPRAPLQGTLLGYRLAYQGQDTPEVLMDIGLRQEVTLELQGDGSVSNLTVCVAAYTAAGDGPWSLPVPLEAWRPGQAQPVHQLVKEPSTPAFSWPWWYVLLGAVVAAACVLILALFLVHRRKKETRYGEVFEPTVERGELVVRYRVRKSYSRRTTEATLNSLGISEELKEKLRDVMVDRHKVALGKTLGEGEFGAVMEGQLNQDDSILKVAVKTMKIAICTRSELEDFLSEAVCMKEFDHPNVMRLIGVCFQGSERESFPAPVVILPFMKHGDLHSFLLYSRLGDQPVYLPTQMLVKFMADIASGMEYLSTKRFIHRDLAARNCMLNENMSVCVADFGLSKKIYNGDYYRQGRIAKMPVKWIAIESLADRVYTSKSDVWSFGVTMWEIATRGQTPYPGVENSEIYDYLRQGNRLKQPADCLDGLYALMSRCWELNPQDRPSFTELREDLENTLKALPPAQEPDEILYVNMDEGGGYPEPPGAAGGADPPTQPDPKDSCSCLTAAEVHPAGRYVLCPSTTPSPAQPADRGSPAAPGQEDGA

[7] = biological target: T6, Homo sapiens AXL-Mus musculus FN2 domain (p33-AXL-mFN2) (human-mouse chimera, UniProt P30530 26-894); test: as above
T6 construct: Expressed in HEK293F cells; also called hsAXL-mmFN2; TH1021-mFN2
T6 chain: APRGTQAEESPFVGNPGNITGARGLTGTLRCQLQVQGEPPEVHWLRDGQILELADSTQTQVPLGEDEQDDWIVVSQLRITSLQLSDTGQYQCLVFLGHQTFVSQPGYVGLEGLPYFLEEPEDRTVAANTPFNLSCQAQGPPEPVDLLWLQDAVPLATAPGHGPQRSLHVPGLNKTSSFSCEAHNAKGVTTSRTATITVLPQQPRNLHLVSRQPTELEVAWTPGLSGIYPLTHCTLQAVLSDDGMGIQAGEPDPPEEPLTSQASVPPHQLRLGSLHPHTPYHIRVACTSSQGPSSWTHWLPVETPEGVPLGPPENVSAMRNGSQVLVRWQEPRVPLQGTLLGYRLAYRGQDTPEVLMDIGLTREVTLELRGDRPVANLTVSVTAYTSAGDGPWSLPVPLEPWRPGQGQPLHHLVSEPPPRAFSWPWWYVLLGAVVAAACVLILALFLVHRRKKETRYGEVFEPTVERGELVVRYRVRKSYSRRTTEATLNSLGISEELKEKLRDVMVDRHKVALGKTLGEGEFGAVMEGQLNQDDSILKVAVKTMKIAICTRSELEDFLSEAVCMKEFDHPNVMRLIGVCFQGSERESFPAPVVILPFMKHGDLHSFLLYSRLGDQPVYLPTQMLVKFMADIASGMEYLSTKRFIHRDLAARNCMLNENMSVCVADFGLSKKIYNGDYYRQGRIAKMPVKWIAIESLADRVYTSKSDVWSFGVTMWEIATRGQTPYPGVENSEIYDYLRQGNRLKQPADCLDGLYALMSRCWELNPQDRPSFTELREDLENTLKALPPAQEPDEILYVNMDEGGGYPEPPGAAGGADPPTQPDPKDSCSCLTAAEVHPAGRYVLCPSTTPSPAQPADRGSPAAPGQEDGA

B1: IgG1-AXL-140 (antibody, V domains shown)
VH: EVQLLESGGGLVQPGGSLRLSCAASGFTFSSYAMTWVRQAPGKGLEWVSAISISGASTFYADSVKGRFTISRDNSKNTLSLQMNSLRAEDTAVYFCRGYSGYVYDAFDIWGQGTMVTVSS
VL: DIQMTQSPSSLSASVGDRVTITCRASQGISNWLAWYQQKPEKAPKSLIYAASSLQSGVPSRFSGSGSGTDFTLTISSLQPEDFATYYCQQYNSYPLTFGGGTKVEIK
[1]
  EC50: 0.0026 µg/mL
  Maximal binding (Arbitrary units): 2890 arbitrary units

B2: IgG1-AXL-726-M101L (antibody, V domains shown)
VH: QVQLQQWGAGLLKPSETLSLTCAIDGGSFSGYYWSWIRQPPGKGLEWIGEISHSGRTNYNPSLKSRVTISIDTSKNQFSLKLSSVAAADTAVYYCARFITLIRGAIITHFDYWGQGALVTVSS
VL: DIQMTQSPSSLSASVGDRVTITCRASQGISSWLAWYQQKPEKAPKSLIYAASSLQSGVPSRFSGSGSGTDFTLTISSLQPEDFATYYCQQYHSYPYTFGQGTKLEIK
notes: Expressed as human IgG1,κ
[2]
  EC50: 0.25 µg/mL
[3]
  Kd: 0.3 nM
  koff: 6.9e-05 s⁻¹
  kon: 210000 M⁻¹ s⁻¹
[4]
  EC50: 0.184 µg/mL

B3: IgG1-AXL-187 (antibody, V domains shown)
VH: QVPLQQWGAGLLKPSETLSLTCAVYGGSFSGYHWSWIRQPPGKGLEWIGEISHSGRTNYNPSLKSRVTISIDTSKNQFSLKLSSVTAADTAVYYCASFITMIRGTIITHFDYWGQGTLVTVSS
VL: DIQMTQSPSSLSASVGDRVTITCRASQGISSWLAWYQQKPEKAPKSLIYAASSLQSGVPSRFSGSGSGTDFTLTISSLQPEDFATYYCQQYHSYPYTFGQGTKLEIK
[1]
  EC50: 0.0065 µg/mL
  Maximal binding (Arbitrary units): 2560 arbitrary units

B4: IgG1-AXL-613-08 (antibody, V domains shown)
VH: QVQLVQSGAEVKKPGSSVKVSCKASGGTFSSYAINWMRQAPGQGLEWMGRIIPIFGIVNYAQKFQGRVTLTADKSTSTAYMELSSLRSEDTAVYYCARRGNYYGSGSPDVFDIWGQGTMVTVSS
VL: EIVLTQSPATLSLSPGERATLSCRASQSVSSYLAWYQQKPGQAPRLLIYDASNRATGIPARFSGSGSGTDFTLTISSLEPEDFAVYYCQQRSNWLTFGGGTKVEIK
[1]
  EC50: 0.0242 µg/mL
  Maximal binding (Arbitrary units): 2210 arbitrary units

B5: IgG1-AXL-154 (antibody, V domains shown)
VH: EVQLLDSGGGLVQPGGSLRLSCAASGFTFSSYAMSWVRQAPGKGLEWVSAISIGGGNAYYADSVKGRFTISRDNSKNTLYLQMNSLRAADTAVYYCAKPGFIMVRGPLDYWGQGALVTVSS
VL: not shown
[5]
  binding result: binds
[6]
  binding result: binds
[7]
  binding result: binds
